The series concerns ATP. The series can be described thus: switch fluorescence ratio, 500 uM ATP over buffer (Cy3 cluster intensity, sum of 5 cycles each) (fold (ratio)); higher = stronger signal-on switching upon ATP binding; sequences stand for … in TCGTCGGCAGCGTCAGATGTGTATAAGAGACAGTTTTTTTTTTTTTTTTTTTTTTTTT…TC. Conditions: aptamer strand: ATP DNA aptamer (quencher-CACCTGGGGGAGTATTGCGGAGGAAGG + anchor), 100 nM annealed; ATP concentration: 500 uM. In outline: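 For every switch-domain sequence, the fluorescence ratio is the mean of per-cluster values, each being summed target-cycle Cy3 intensity over summed buffer-cycle Cy3 intensity. Clusters outside 100-1000 RFU were excluded. On a modified Illumina MiSeq flow-cell, the Cy3-labelled switching-strand clusters were annealed to 100 nM quencher-labelled ATP aptamer, imaged in selection buffer and then after 15 min with 500 uM ATP at 22 °C. Five such cycles were run, with NaOH stripping and re-annealing between them.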

± gives the standard deviation of the averaged measurements.
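Also: ATP exposure 15 min at 22 °C before imaging.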

CGTTGCAAAG: the switch fluorescence ratio turned out to be 1.03 ± 0.022.
Take CGTTGCGGGA: the switch fluorescence ratio came to 1.01 ± 0.045.
Turning to CGTTGCTCGG, the switch fluorescence ratio is 1 ± 0.0083.
For CGTTGCTTAG, the switch fluorescence ratio came out at 0.988 ± 0.024.
Take CGTTGGACGG: the switch fluorescence ratio was determined as 1.03 ± 0.026.
CGTTGGGAGC: the switch fluorescence ratio was 1 ± 0.019.
Under CGTTGGGAGT stands 0.988 ± 0.037; under CGTTGGGCAG, 0.953 ± 0.099; under CGTTGGGGG, 0.963 ± 0.029.
Take CGTTGGTGAG: the switch fluorescence ratio was 0.9373 ± 0.0065.
In the case of CGTTGTTGGA, the switch fluorescence ratio was determined as 1 ± 0.025.
Under CGTTTAACAT stands 1.01 ± 0.014.
Consider CGTTTAAGCG, for which the switch fluorescence ratio came out at 1.01 ± 0.038.
For CGTTTAAGGG, the switch fluorescence ratio was determined as 0.9819 ± 0.0074.
Turning to CGTTTAATCA, the switch fluorescence ratio is 0.982 ± 0.018.
As for CGTTTACAAG, the switch fluorescence ratio was 0.985 ± 0.033.
With CGTTTACCTT the figure was 1.0086 ± 0.001; with CGTTTAGATA, 1 ± 0.042.
With CGTTTAGTTG the figure was 1.002 ± 0.009.
For the sequence CGTTTATTTT, the switch fluorescence ratio was found to be 1.01 ± 0.03.
Under CGTTTGACTT stands 0.9947 ± 0.0066; under CGTTTGAGGA, 1.01 ± 0.03.
CGTTTGAGTT: the switch fluorescence ratio came out at 0.984 ± 0.026.
Under CGTTTGCAGT stands 1.02 ± 0.017.
Turning to CGTTTGCGAT, the switch fluorescence ratio stood at 0.989 ± 0.05.
Under CGTTTGGCGT stands 1.12 ± 0.2.
For the sequence CGTTTGGGGA, the switch fluorescence ratio came to 0.99 ± 0.015.
Regarding CGTTTGGGTA, the switch fluorescence ratio turned out to be 0.999 ± 0.041.
Under CGTTTGTTTG stands 0.988 ± 0.021; under CGTTTTCGGG, 1.02 ± 0.016.
CGTTTTGGGA: the switch fluorescence ratio was determined as 0.98 ± 0.013.
On to CGTTTTGTGC, for which the switch fluorescence ratio was 1.03 ± 0.042.
Regarding CGTTTTTAAT, the switch fluorescence ratio worked out at 1.01 ± 0.021.
Under CGTTTTTGAA stands 0.99 ± 0.025; under CGTTTTTGCT, 0.961 ± 0.05; under CGTTTTTTAG, 0.99 ± 0.022.
As to CGTTTTTTAT, the switch fluorescence ratio stood at 1.02 ± 0.031.
In the case of CTAAAACAGG, the switch fluorescence ratio worked out at 1.02 ± 0.03.
Consider CTAAAACTTG, for which the switch fluorescence ratio is 1.14 ± 0.13.
Under CTAAAATTGA stands 0.985 ± 0.038; under CTAAACCGGT, 0.989 ± 0.015.
For the sequence CTAAAGATCG, the switch fluorescence ratio stood at 1.03 ± 0.049.
As for CTAAATATGA, the switch fluorescence ratio came out at 0.98 ± 0.035.
With CTAACATGTG the figure was 0.998 ± 0.03; with CTAACTCGC, 1.04 ± 0.011; with CTAACTGAG, 1.03 ± 0.017.
With CTAAGCCAAT the figure was 1.21 ± 0.023; with CTAAGCCGTT, 0.971 ± 0.011; with CTAAGGCATG, 1.05 ± 0.0013.
With CTAAGGCGTT, the switch fluorescence ratio was 0.999 ± 0.013.
Consider CTAAGGGATT, for which the switch fluorescence ratio was found to be 1.01 ± 0.058.
With CTAATACTTG the figure was 0.9791 ± 0.0024; with CTAATAGGAG, 1.004 ± 0.0025; with CTAATATGGG, 1.04 ± 0.021.
Under CTAATCAAAT stands 0.973 ± 0.019; under CTAATCATCT, 1.01 ± 0.039.
In the case of CTAATGTGCG, the switch fluorescence ratio stood at 1.15 ± 0.28.
Regarding CTAATTGTGT, the switch fluorescence ratio is 0.9933 ± 0.0034.
In the case of CTACCAGGGA, the switch fluorescence ratio was 1.149 ± 0.0019.
As to CTACGAGCTG, the switch fluorescence ratio stood at 1.06 ± 0.021.
For the sequence CTACGGGGCG, the switch fluorescence ratio amounted to 1.01 ± 0.061.
With CTAGAAGTAT the figure was 1.024 ± 0.0033; with CTAGAATGAT, 1.014 ± 0.0072; with CTAGAGGGGG, 0.9711 ± 0.0094.
Consider CTAGATGCTT, for which the switch fluorescence ratio stood at 1.012 ± 0.0096.
With CTAGATGGGT the figure was 1.01 ± 0.046; with CTAGCTTACT, 1.36 ± 0.065.

Source of the values: the supplement of paper PMC10126150.
